Measurements taken from the supplement of paper PMC7877785.
± gives the uncertainty stated by the source.

Assay: self-splicing fitness, log relative to wild type (ln ratio); higher = more splicing; Tetrahymena group I intron in knt gene, E. coli kanamycin selection, DiMSum; sequences stand for … in CUCUCU…GGAGGGAAAAGUUAUCAGGCAUGCACCUGGUAGCUAGUCUUUAAACCAAUAGAUUGCAUCGGUUUAAAAGGCAAGACCGUCAAAUUGCGGGAAAGGGGUCAACAGCCGUUCAGUACCAAGUCUCAGGGGAAACUUUGAGAUGGCCUUGCAAAGGGUAUGGUAAUAAGCUGACGGACAUGGUCCUAACCACGCAGCCAAGUCCUAAGUCAACAGAUCUUCUGUUGAUAUGGAUGCAGUUCACAGACUAAAUGUCGGUCGGGGAAGAUGUAUUCUUCUCAUAAGAUAUAGUCGGACCUCUCCUUAAUGGGAGCUAGCGGAUGAAGUGAUGCAACACUGGAGCCGCUGGGAACUAAUUUGUAUGCGAAAGUAUAUUGAUUAGUUUUGGAGUACUCGUGGUCG
Method in brief: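 The eight P1ex-region nucleotides of an intron in the knt kanamycin-resistance gene on pET-22b(+) were all randomised and the library put into E. coli BL21(DE3). Six replicate transformations were grown overnight at 37°C or 30°C on LB agar with or without 25 μg/mL kanamycin, together with 100 μg/mL carbenicillin, 50 μM IPTG and 0.2% rhamnose. Colonies were pooled and amplicon-sequenced on an Illumina HiSeq 2500. Fitness from DiMSum is the error-weighted combination of wild-type-normalised replicate fold changes, kanamycin over none.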

| Sequence | self-splicing fitness (ln) (30 °C) | self-splicing fitness (ln) (37 °C) |
| --- | --- | --- |
| CGCUAGCAAUAUUACGGCCC | -1.74 ± 0.19 | 0.036 ± 0.24 |
| CGCUAGCAAUAUUACGGCUC | -1.15 ± 0.16 | -0.2 ± 0.19 |
| CGCUAGCAAUAUUACGGGCU | -1.85 ± 0.17 | -1.33 ± 0.2 |
| CGCUAGCAAUAUUACGGUGC | -4.65 ± 0.34 | -3.09 ± 0.25 |
| CGCUAGCAAUAUUACGGUUC | -2.13 ± 0.21 | -0.893 ± 0.26 |
| CGCUAGCAAUAUUACGUCAC | -4.44 ± 0.42 | -3.4 ± 0.37 |
| CGCUAGCAAUAUUACGUCGA | -2.02 ± 0.35 | -1.78 ± 0.32 |
| CGCUAGCAAUAUUACGUCGU | -3.7 ± 0.37 | -2.87 ± 0.23 |
| CGGAAGCAAUAUUACGAACG | -3 ± 0.21 | -0.802 ± 0.24 |
| CGGAAGCAAUAUUACGAAGU | – | -2.81 ± 0.44 |
| CGGAAGCAAUAUUACGACAU | -3.637 ± 0.026 | -2.32 ± 0.038 |
| CGGAAGCAAUAUUACGACCG | -3.04 ± 0.35 | -2.26 ± 0.45 |
| CGGAAGCAAUAUUACGACGU | -2.55 ± 0.11 | -0.27 ± 0.12 |
| CGGAAGCAAUAUUACGAUCA | -0.698 ± 0.11 | -0.039 ± 0.1 |
| CGGAAGCAAUAUUACGAUUA | -1.17 ± 0.18 | -1.56 ± 0.16 |
| CGGAAGCAAUAUUACGCAAG | -0.584 ± 0.18 | -1.95 ± 0.43 |
| CGGAAGCAAUAUUACGCACC | -2.4 ± 0.32 | -1.19 ± 0.27 |
| CGGAAGCAAUAUUACGCCUU | -3.2 ± 0.17 | -3.48 ± 0.3 |
| CGGAAGCAAUAUUACGCGAA | -2.86 ± 0.27 | -1.46 ± 0.32 |

| Sequence | self-splicing fitness (ln) (30 °C) | self-splicing fitness (ln) (37 °C) |
| --- | --- | --- |
| CGGAAGCAAUAUUACGCGUA | -2.96 ± 0.29 | -2.47 ± 0.25 |
| CGGAAGCAAUAUUACGCUCA | -1.59 ± 0.17 | 0.105 ± 0.18 |
| CGGAAGCAAUAUUACGCUGC | -2.35 ± 0.41 | -1.78 ± 0.2 |
| CGGAAGCAAUAUUACGGAAC | -2.23 ± 0.34 | – |
| CGGAAGCAAUAUUACGGGCG | -0.796 ± 0.091 | -0.481 ± 0.12 |
| CGGAAGCAAUAUUACGGUAG | -0.312 ± 0.072 | -0.214 ± 0.096 |
| CGGAAGCAAUAUUACGUAAC | – | -2.71 ± 0.27 |
| CGGAAGCAAUAUUACGUGGA | -2.79 ± 0.14 | -2.93 ± 0.21 |
| CGGCAGCAAUAUUACGAGAU | -1.99 ± 0.19 | -2.81 ± 0.27 |
| CGGCAGCAAUAUUACGAGUG | -1.03 ± 0.086 | 0.319 ± 0.1 |
| CGGCAGCAAUAUUACGCCGA | -2.87 ± 0.29 | -2.76 ± 0.34 |
| CGGCAGCAAUAUUACGCGGU | -4.26 ± 0.25 | -3.33 ± 0.19 |
| CGGCAGCAAUAUUACGCUGC | -3.47 ± 0.32 | -1.5 ± 0.19 |
| CGGCAGCAAUAUUACGGAGA | -1.63 ± 0.3 | -1.62 ± 0.29 |
| CGGCAGCAAUAUUACGGCCU | -1.23 ± 0.092 | -0.41 ± 0.088 |
| CGGCAGCAAUAUUACGGGAA | -2.49 ± 0.15 | -1.97 ± 0.16 |
| CGGCAGCAAUAUUACGGGCG | -1.85 ± 0.13 | -0.898 ± 0.14 |
| CGGCAGCAAUAUUACGGUUU | -2.16 ± 0.077 | -0.769 ± 0.089 |
| CGGCAGCAAUAUUACGUAAU | -3.38 ± 0.18 | -1.69 ± 0.22 |
